How the values were obtained:
[1] = tested on: wild-type PPE proprotein as used in Example 2
[2] = tested on: exemplary modified PPE proproteins

Sequence of wild-type PPE proprotein as used in Example 2 (chain, as listed by the source): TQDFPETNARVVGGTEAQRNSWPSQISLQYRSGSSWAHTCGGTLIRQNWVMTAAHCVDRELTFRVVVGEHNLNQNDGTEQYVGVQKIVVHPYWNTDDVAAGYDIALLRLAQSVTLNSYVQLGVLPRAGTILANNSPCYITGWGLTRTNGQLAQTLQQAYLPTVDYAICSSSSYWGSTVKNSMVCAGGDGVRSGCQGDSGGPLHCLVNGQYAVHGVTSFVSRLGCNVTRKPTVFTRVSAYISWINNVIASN

With purified trypsin the “catalytic activity after protease digestion (colorimetric substrate assay), FIG. 4B” value [1] was “the wild-type PPE protein was catalytically-active after incubation with trypsin”, the “protease cleavage by SDS-PAGE and Coomassie blue staining” value [1] was “trypsin cleaved the wild-type PPE as a control” and the “catalytic activity after protease digestion (colorimetric substrate assay), FIG. 4B” value [2] was “catalytically-inactive after incubation with trypsin or no protease”.

Source: patent US20230348881
